Reference: US20140271457A1 (AbbVie / Abbott, published 2014)

Target: Recombinant Human TNF-α/TNFSF1A (human, UniProt P01375 77-233)
Assay: cell-based or functional assay

Chain of Recombinant Human TNF-α/TNFSF1A (P01375 77-233 limits assumed): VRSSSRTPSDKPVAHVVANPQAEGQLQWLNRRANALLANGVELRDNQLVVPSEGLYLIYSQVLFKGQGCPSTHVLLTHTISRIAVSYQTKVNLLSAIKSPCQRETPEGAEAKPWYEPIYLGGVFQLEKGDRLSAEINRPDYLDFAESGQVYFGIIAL

Binder | C-Terminal VD huTNFα Neutralization Assay IC50 | N-Terminal VD huTNFα Neutralization Assay IC50
DVD3112 (bispecific antibody, IgG1) VH: EVQLVQSGAEVKKPGASVKVSCKASGYTFTTYGVSWVRQAPGQGLEWMGEIYPGNYNTYYNEKFRGRVTMTTDTSTSTAYMELRSLRSDDTAVYYCARWRTSYFSDYGYFDYWGQGTTVTVSSASTKGPSVFPLAPEVQLVQSGAEVKKPGASVKVSCKASGYTFANYGIIWVRQAPGQGLEWMGWINTYTGKPTYAQKFQGRVTMTTDTSTSTAYMELSSLRSEDTAVYYCARKLFTTMDVTDNAMDYWGQGTTVTVSS VL: DVVMTQSPLSLPVTLGQPASISCRSSQSLVHSHGNTYLHWYQQRPGQSPRLLIYTVSNRFSGVPDRFSGSGSGTDFTLKISRVEAEDVGVYYCSQSTHVPYTFGGGTKVEIKRTVAAPDIQMTQSPSSLSASVGDRVTITCRASQDISQYLNWYQQKPGKAPKLLIYYTSRLQSGVPSRFSGSGSGTDFTLTISSLQPEDFATYFCQQGNTWPPTFGQGTKLEIKR | 387 pM | 
DVD3103 (bispecific antibody, IgG1) VH: EVQLVQSGAEVKKPGASVKVSCKASGYTFANYGIIWVRQAPGQGLEWMGWINTYTGKPTYAQKFQGRVTMTTDTSTSTAYMELSSLRSEDTAVYYCARKLFTTMDVTDNAMDYWGQGTTVTVSSGGGGSGGGGSEVQLVESGGGLVQPGGSLRLSCAASGFTFSNYGVTWVRQAPGKGLEWVSMIWADGSTHYASSVKGRFTISRDNSKNTLYLQMNSLRAEDTAVYYCAREWQHGPVAYWGQGTLVTVSS VL: DIQMTQSPSSLSASVGDRVTITCRASQDISQYLNWYQQKPGKAPKLLIYYTSRLQSGVPSRFSGSGSGTDFTLTISSLQPEDFATYFCQQGNTWPPTFGQGTKLEIKRGGSGGGGSGDIQMTQSPSSLSASVGDRVTITCRASQLVSSAVAWYQQKPGKAPKLLIYWASARHTGVPSRFSGSGSGTDFTLTISSLQPEDFATYYCQQHYKTPFTFGQGTKLEIKR |  | 16 pM
DVD3089 (bispecific antibody, IgG1) VH: EVQLVQSGAEVKKPGASVKVSCKASGYTFTTYGVSWVRQAPGQGLEWMGEIYPGNYNTYYNEKFRGRVTMTTDTSTSTAYMELRSLRSDDTAVYYCARWRTSYFSDYGYFDYWGQGTTVTVSSASTKGPEVQLVESGGGLVQPGGSLRLSCAASGFTFSNYGVTWVRQAPGKGLEWVSMIWADGSTHYASSVKGRFTISRDNSKNTLYLQMNSLRAEDTAVYYCAREWQHGPVAYWGQGTLVTVSS VL: DVVMTQSPLSLPVTLGQPASISCRSSQSLVHSHGNTYLHWYQQRPGQSPRLLIYTVSNRFSGVPDRFSGSGSGTDFTLKISRVEAEDVGVYYCSQSTHVPYTFGGGTKVEIKRTVAAPDIQMTQSPSSLSASVGDRVTITCRASQLVSSAVAWYQQKPGKAPKLLIYWASARHTGVPSRFSGSGSGTDFTLTISSLQPEDFATYYCQQHYKTPFTFGQGTKLEIKR | 520 pM | 
DVD3101 (bispecific antibody, IgG1) VH: EVQLVQSGAEVKKPGASVKVSCKASGYTFTTYGVSWVRQAPGQGLEWMGEIYPGNYNTYYNEKFRGRVTMTTDTSTSTAYMELRSLRSDDTAVYYCARWRTSYFSDYGYFDYWGQGTTVTVSSASTKGPEVQLVESGGGLVQPGGSLRLSCAASGFTFSNYGVEWVRQAPGKGLEWVSGIWADGSTHYADTVKSRFTISRDNSKNTLYLQMNSLRAEDTAVYYCAREWQHGPVAYWGQGTLVTVSS VL: DVVMTQSPLSLPVTLGQPASISCRSSQSLVHSHGNTYLHWYQQRPGQSPRLLIYTVSNRFSGVPDRFSGSGSGTDFTLKISRVEAEDVGVYYCSQSTHVPYTFGGGTKVEIKRTVAAPSVFIFPPDIQMTQSPSSLSASVGDRVTITCKASQLVSSAVAWYQQKPGKAPKLLIYWASTLHTGVPSRFSGSGSGTDFTLTISSLQPEDFATYYCQQHYRTPFTFGQGTKLEIKR | 308 pM | 
DVD3099 (bispecific antibody, IgG1) VH: EVQLVQSGAEVKKPGASVKVSCKASGYTFTTYGVSWVRQAPGQGLEWMGEIYPGNYNTYYNEKFRGRVTMTTDTSTSTAYMELRSLRSDDTAVYYCARWRTSYFSDYGYFDYWGQGTTVTVSSASTKGPEVQLVESGGGLVQPGGSLRLSCAASGFTFSNYGVEWVRQAPGKGLEWVSGIWADGSTHYADTVKSRFTISRDNSKNTLYLQMNSLRAEDTAVYYCAREWQHGPVAYWGQGTLVTVSS VL: DVVMTQSPLSLPVTLGQPASISCRSSQSLVHSHGNTYLHWYQQRPGQSPRLLIYTVSNRFSGVPDRFSGSGSGTDFTLKISRVEAEDVGVYYCSQSTHVPYTFGGGTKVEIKRTVAAPDIQMTQSPSSLSASVGDRVTITCKASQLVSSAVAWYQQKPGKAPKLLIYWASTLHTGVPSRFSGSGSGTDFTLTISSLQPEDFATYYCQQHYRTPFTFGQGTKLEIKR |  | 3 pM
DVD3102 (bispecific antibody, IgG1) VH: EVQLVQSGAEVKKPGASVKVSCKASGYTFTTYGVSWVRQAPGQGLEWMGEIYPGNYNTYYNEKFRGRVTMTTDTSTSTAYMELRSLRSDDTAVYYCARWRTSYFSDYGYFDYWGQGTTVTVSSASTKGPSVFPLAPEVQLVESGGGLVQPGGSLRLSCAASGFTFSNYGVEWVRQAPGKGLEWVSGIWADGSTHYADTVKSRFTISRDNSKNTLYLQMNSLRAEDTAVYYCAREWQHGPVAYWGQGTLVTVSS VL: DVVMTQSPLSLPVTLGQPASISCRSSQSLVHSHGNTYLHWYQQRPGQSPRLLIYTVSNRFSGVPDRFSGSGSGTDFTLKISRVEAEDVGVYYCSQSTHVPYTFGGGTKVEIKRTVAAPDIQMTQSPSSLSASVGDRVTITCKASQLVSSAVAWYQQKPGKAPKLLIYWASTLHTGVPSRFSGSGSGTDFTLTISSLQPEDFATYYCQQHYRTPFTFGQGTKLEIKR | 294 pM | 

Results, then the binder that gave them:

C-Terminal VD huTNFα Neutralization Assay IC50 | N-Terminal VD huTNFα Neutralization Assay IC50 | Binder
183 pM |  | DVD3108 (bispecific antibody, IgG1) VH: EVQLVQSGAEVKKPGASVKVSCKASGYTFTTYGVSWVRQAPGQGLEWMGEIYPGNYNTYYNEKFRGRVTMTTDTSTSTAYMELRSLRSDDTAVYYCARWRTSYFSDYGYFDYWGQGTTVTVSSGGGGSGGGGSEVQLVQSGAEVKKPGASVKVSCKASGYTFANYGIIWVRQAPGQGLEWMGWINTYTGKPTYAQKFQGRVTMTTDTSTSTAYMELSSLRSEDTAVYYCARKLFTTMDVTDNAMDYWGQGTTVTVSS VL: DVVMTQSPLSLPVTLGQPASISCRSSQSLVHSHGNTYLHWYQQRPGQSPRLLIYTVSNRFSGVPDRFSGSGSGTDFTLKISRVEAEDVGVYYCSQSTHVPYTFGGGTKVEIKRGGSGGGGSGDIQMTQSPSSLSASVGDRVTITCRASQDISQYLNWYQQKPGKAPKLLIYYTSRLQSGVPSRFSGSGSGTDFTLTISSLQPEDFATYFCQQGNTWPPTFGQGTKLEIKR
731 pM |  | DVD3109 (bispecific antibody, IgG1) VH: EVQLVQSGAEVKKPGASVKVSCKASGYTFTTYGVSWVRQAPGQGLEWMGEIYPGNYNTYYNEKFRGRVTMTTDTSTSTAYMELRSLRSDDTAVYYCARWRTSYFSDYGYFDYWGQGTTVTVSSASTKGPEVQLVQSGAEVKKPGASVKVSCKASGYTFANYGIIWVRQAPGQGLEWMGWINTYTGKPTYAQKFQGRVTMTTDTSTSTAYMELSSLRSEDTAVYYCARKLFTTMDVTDNAMDYWGQGTTVTVSS VL: DVVMTQSPLSLPVTLGQPASISCRSSQSLVHSHGNTYLHWYQQRPGQSPRLLIYTVSNRFSGVPDRFSGSGSGTDFTLKISRVEAEDVGVYYCSQSTHVPYTFGGGTKVEIKRTVAAPDIQMTQSPSSLSASVGDRVTITCRASQDISQYLNWYQQKPGKAPKLLIYYTSRLQSGVPSRFSGSGSGTDFTLTISSLQPEDFATYFCQQGNTWPPTFGQGTKLEIKR
146 pM |  | DVD3111 (bispecific antibody, IgG1) VH: EVQLVQSGAEVKKPGASVKVSCKASGYTFTTYGVSWVRQAPGQGLEWMGEIYPGNYNTYYNEKFRGRVTMTTDTSTSTAYMELRSLRSDDTAVYYCARWRTSYFSDYGYFDYWGQGTTVTVSSASTKGPEVQLVQSGAEVKKPGASVKVSCKASGYTFANYGIIWVRQAPGQGLEWMGWINTYTGKPTYAQKFQGRVTMTTDTSTSTAYMELSSLRSEDTAVYYCARKLFTTMDVTDNAMDYWGQGTTVTVSS VL: DVVMTQSPLSLPVTLGQPASISCRSSQSLVHSHGNTYLHWYQQRPGQSPRLLIYTVSNRFSGVPDRFSGSGSGTDFTLKISRVEAEDVGVYYCSQSTHVPYTFGGGTKVEIKRTVAAPSVFIFPPDIQMTQSPSSLSASVGDRVTITCRASQDISQYLNWYQQKPGKAPKLLIYYTSRLQSGVPSRFSGSGSGTDFTLTISSLQPEDFATYFCQQGNTWPPTFGQGTKLEIKR
 | 33 pM | DVD3104 (bispecific antibody, IgG1) VH: EVQLVQSGAEVKKPGASVKVSCKASGYTFANYGIIWVRQAPGQGLEWMGWINTYTGKPTYAQKFQGRVTMTTDTSTSTAYMELSSLRSEDTAVYYCARKLFTTMDVTDNAMDYWGQGTTVTVSSASTKGPEVQLVESGGGLVQPGGSLRLSCAASGFTFSNYGVTWVRQAPGKGLEWVSMIWADGSTHYASSVKGRFTISRDNSKNTLYLQMNSLRAEDTAVYYCAREWQHGPVAYWGQGTLVTVSS VL: DIQMTQSPSSLSASVGDRVTITCRASQDISQYLNWYQQKPGKAPKLLIYYTSRLQSGVPSRFSGSGSGTDFTLTISSLQPEDFATYFCQQGNTWPPTFGQGTKLEIKRTVAAPDIQMTQSPSSLSASVGDRVTITCRASQLVSSAVAWYQQKPGKAPKLLIYWASARHTGVPSRFSGSGSGTDFTLTISSLQPEDFATYYCQQHYKTPFTFGQGTKLEIKR
 | 12 pM | DVD3098 (bispecific antibody, IgG1) VH: EVQLVQSGAEVKKPGASVKVSCKASGYTFTTYGVSWVRQAPGQGLEWMGEIYPGNYNTYYNEKFRGRVTMTTDTSTSTAYMELRSLRSDDTAVYYCARWRTSYFSDYGYFDYWGQGTTVTVSSGGGGSGGGGSEVQLVESGGGLVQPGGSLRLSCAASGFTFSNYGVEWVRQAPGKGLEWVSGIWADGSTHYADTVKSRFTISRDNSKNTLYLQMNSLRAEDTAVYYCAREWQHGPVAYWGQGTLVTVSS VL: DVVMTQSPLSLPVTLGQPASISCRSSQSLVHSHGNTYLHWYQQRPGQSPRLLIYTVSNRFSGVPDRFSGSGSGTDFTLKISRVEAEDVGVYYCSQSTHVPYTFGGGTKVEIKRGGSGGGGSGDIQMTQSPSSLSASVGDRVTITCKASQLVSSAVAWYQQKPGKAPKLLIYWASTLHTGVPSRFSGSGSGTDFTLTISSLQPEDFATYYCQQHYRTPFTFGQGTKLEIKR
192 pM |  | DVD3091 (bispecific antibody, IgG1) VH: EVQLVQSGAEVKKPGASVKVSCKASGYTFTTYGVSWVRQAPGQGLEWMGEIYPGNYNTYYNEKFRGRVTMTTDTSTSTAYMELRSLRSDDTAVYYCARWRTSYFSDYGYFDYWGQGTTVTVSSASTKGPEVQLVESGGGLVQPGGSLRLSCAASGFTFSNYGVTWVRQAPGKGLEWVSMIWADGSTHYASSVKGRFTISRDNSKNTLYLQMNSLRAEDTAVYYCAREWQHGPVAYWGQGTLVTVSS VL: DVVMTQSPLSLPVTLGQPASISCRSSQSLVHSHGNTYLHWYQQRPGQSPRLLIYTVSNRFSGVPDRFSGSGSGTDFTLKISRVEAEDVGVYYCSQSTHVPYTFGGGTKVEIKRTVAAPSVFIFPPDIQMTQSPSSLSASVGDRVTITCRASQLVSSAVAWYQQKPGKAPKLLIYWASARHTGVPSRFSGSGSGTDFTLTISSLQPEDFATYYCQQHYKTPFTFGQGTKLEIKR
